# Data: the nanobody polyreactivity screen of Harvey et al. (2022)
# Assay: yeast display, Sf9 membrane polyspecificity reagent, FACS + sequencing; frameworks hold sequencing errors
# Outline: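 Galactose induction of a Saccharomyces cerevisiae BJ5465 synthetic nanobody display library ran 36–48 hours. The cells were then stained for 1 hour at 4 °C with 10% biotinylated, detergent-solubilized Sf9 membrane reagent, pulled down on streptavidin microbeads and FACS-sorted into low and high (top ~1%) gates on expression and reagent-binding fluorescence. Labels for polyreactivity follow the gate of origin.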
sequence,measurement,value
QEQLEESGGGLVQAGGSLRLSCAASGFTLGRYAMGWYIQAPGKERELVAAINSSGGRTYYADSVNGRFTISRDTAKNTVYLQLNSLKPEDTAVYYCATVNVRGPPYDFWGQGTQVTVSS,polyreactivity (PSR sort gate),high polyreactivity
QVQLVESGGGLVQAGGSLRLSCAASGSIFKWYAMGWSRQAPGKERELVAAITNGGGSTYYADSVKGRFTISRDNAKNTVYLQMNSLKAEDTAVYYCAKDGHSYYPWVYDYWGQGTQVTVSS,polyreactivity (PSR sort gate),low polyreactivity
QVQLVESGGGLVQAGGSLRLSCAASGGIFVRYAMGWYRQAPGKERELVAAISYSGGSTYYADSVKGRFTISRDNAKNTVYLQLNSLKPEDTAVYYCAAYVTGRYDWGQVTQVTVSS,polyreactivity (PSR sort gate),high polyreactivity
QVQLVESGGGLVQAGGSLRLSCAASGRIFLRNAMGWYRQAPGKERELVATITSRGGSTYYADSVKGRFTISRDNAKNTVYLQMNSLKQEDTAVYYCAADPRRYRGFGYVYGGFYYWGQGTQVTVSS,polyreactivity (PSR sort gate),low polyreactivity
QVQLVESGGGLVQAGGSLRLSCAASGSTFYKYAMGWYRQAAGKERELVASISRSGGSTSYADSVKGRFTISRDNGKNTVYLQMYCLKPEDTAVYYCAATWRQHPGSMGYWGQGTQVTVSS,polyreactivity (PSR sort gate),high polyreactivity
QVQLVESGGGLVQAGGSLRLSCAASGFIFGLYAMGWYRQAPGKETELVATISWDGGSTYYADSVKGRFTISRDNAKNTVYLQMNSLKPEDTAVYYCAATYLYRSPYVPMDYWGQGTQVTVSS,polyreactivity (PSR sort gate),low polyreactivity
QVQLVESGGGLVQAGGRLRLSCAASGFTVSYYGMGWSRQAPGKERELVATISSSGSTNYADSVKGRFTISRDNAKNSVYLQMNSLKPEDTAVYYCATDYADAGYYTTFDYWGQGTQVTVSS,polyreactivity (PSR sort gate),high polyreactivity
QVQLQESGGGLVQASGSIFHEPNMGWYRQAPGKERELVAGISSGANTYYADSVKGRFTISRDNAKNTVYLQMNSLKPEDTAVYHCAVVVHLYTDLRYWGQDTQVTVSS,polyreactivity (PSR sort gate),high polyreactivity
QVQLVESGGGLVQAGGSLRLRCAASGKTFSWYALGWYRLAPGKERELVAVITSGGSTNYADSVKWRFTISRDNAKNTVYLQMNSLKPEDTAVYYCNRRPYGFEEFDYWGQGTQVTVSS,polyreactivity (PSR sort gate),low polyreactivity
QVQLVESGVGLVQAGGSLRLSCAASGIITFYNAMGWYRQAPGKERELVAAITWSGGSTYYADSVKGRFTISRDNAKNTVYVQLNSLKPEDTAVYYCAADVVSVVYLPFVNGGDYWGLGTQVTVSS,polyreactivity (PSR sort gate),low polyreactivity
QVQLVESGGGLVQAGGSLRLSCAASGLIFKYKAMGWYRQAPGKERELVAAISTSGGSTYYADSVKGRFTISRDNAKNTVYLQMNSLKPEDTAVYYCNAVAGRPFRYYYWGQGTQVTVSS,polyreactivity (PSR sort gate),high polyreactivity
QVQLVESGGGLVQAGGSLRLSCAASGSTFFINAMGWYRQEHGTEREFVASISYSGGSTYYADSVKGRFTISRDNAKNTVYLQMNSLKPEDTAVYYCNADVRVFLHYSKYNYWGQGTQVTVSS,polyreactivity (PSR sort gate),low polyreactivity
QVQLVESGGGLVQAGGSLRLSCSASGSIFGSYAMGWYRQAPGKERELVARINTRGGSTYYADSVKGRFTISRDNAKYTVYIQMNSLKPADTAVYYCAKERRASVVRYDYWGQGTQVTVSS,polyreactivity (PSR sort gate),low polyreactivity
QVQLVESGGGLVQAGGSLRLSCAASGRIFHHNAMGWYRQAPGKERELVATITKSGGSTYADSVKGRFTISRDNAKNTVYLQMNSLKPEDTAVYYCDADVTNRGTWVIYGYYYWGQGTQVTVSS,polyreactivity (PSR sort gate),low polyreactivity
QVQLVESGGGLVQAGGSLRFSCAASRSIFFWYTMGWYRQAPGKYRELVATITGSGSSTTYADSVKGRFTISRDNAKNTVYLQMNSLKPEDTAVYYCAAADIIDHSFPYDYWGQGTQVTVSS,polyreactivity (PSR sort gate),low polyreactivity
QVQLVESGGGLVQAGGSLRLSCAASGFTFKYNAMGWYRQAPGKERELVASISSGSTNYADSVKGRFTISRDNAKNTVYLQMNSLKPEDTAVYYCAASVSRGKRFRYGYVFKLDYWGQGTQVTVSS,polyreactivity (PSR sort gate),low polyreactivity
QVQLVETGGGLVQAGGSLRLSCAPSGSIFEYNGMGWYRQAPGKERELVAAITTTGTTDYADSVKGRFTISRDNAKNTVYLQMNSLKPEDTAVYYCAADYTYYYKGEYDYWGQGTQVTVSS,polyreactivity (PSR sort gate),low polyreactivity
QVQLVESGGGLVQAGGSLRLSCAASGSIFRKKAMGWYRQAPGKERELVAAITGTGRTTYADSVKGRFTISRDNAKNTVYLQMNSLKPEDTAVYYCAAEYYYRYSYTNEGDYWGQGTQVTVSS,polyreactivity (PSR sort gate),low polyreactivity
QVQLVESGGGLVHAGGSLRLSCAASGRIFTAYAMGWYRQAPGKERELVASISTSGGRTYYADSVKGLFTISRDNAKNTVYLQMNSLIPEDTAVYYFAADFESYSRYYDGYDYWGQGTQVTVSS,polyreactivity (PSR sort gate),high polyreactivity
QVQLVESGGGLVQAGGSLRLSCAASGFIFSRYDMGWYRQAPGKERELVAAIDWSGDSTYYADSVKGRFTISRDNAKHTVYLQMNSLQPEDTAVYYCAAYYYWGQGTQVTVSS,polyreactivity (PSR sort gate),low polyreactivity
QVQLVETGGGLVQAGGSLRLSCAASGFIFSAYAMGWYRQAPGKEREFVAAISKRGGSTYYADSVKGRFTISRENAKNTVYLQMNTLKPDDTAVYYCAAPYSRYLVGYGYWGQGTQVTVSS,polyreactivity (PSR sort gate),high polyreactivity
QVQLVESGGGLVQARGSLRLSWAASGIIFALYAMGWSRQAPGKERELVAAISSDGITKYADSVKGRFTISRDNAKNPDYLQMNSLKPEDTAVYYCAADGYPGDYDYWGQGTQVTVSS,polyreactivity (PSR sort gate),low polyreactivity
QVQLVESGGGLVQAGGSLRLSCAASGSTFYSNVMGWYTQATGKEREFVAGISGSGGSTYYADSVKGRFTISRDNAKNTVYLQMNSLKPDDTAVYYCAKYRYSRYFRYDYWGQGTQVTVSS,polyreactivity (PSR sort gate),high polyreactivity
QVQLVESGGGLVQAGGSLRLSCAASGSIITINAMGWYRQAPGKERELVAAISKRGGSTYYADSVKGRFTISSDNGKHTVYLQLNSLKPEDTAFYYCNAREYIHWRGALGLFGSWGQGTQVNVSS,polyreactivity (PSR sort gate),high polyreactivity
QVQLVESGGGLVQAGGSLRLSCAASGSTYRIYAMGWYRQAPGKERELVAAITRSGGSTYYADSVKGRFTISRDNAKNTVYLQMNSMKPEDTAVYYCNRRGAYPAKYDYWGQGTQVTVSS,polyreactivity (PSR sort gate),high polyreactivity
QVQLVESGGGLVQAGGSLRLSCAASGSTFYNYAMGWSRQAPGKERELVASITWNGGSTYYADSVKGRFTISRDNAKNTVYLQMNSLKPEDTAVYYCAADWTWTYPYDYWGQGTQVTVSS,polyreactivity (PSR sort gate),low polyreactivity
QVQLVESGGGLVQAGGSLRLSCAASGRTFVNYTMGWYRQAPGKEWELVAAIRYRDGSTYYADSVKGRFTISRDYAKNTVYLQMNSLKPEDTAVYYCNTRITQVGDYIYDYWGQGTQVTVSS,polyreactivity (PSR sort gate),low polyreactivity
QVQLVESGGGLVQAGGSLRLSCAASGSTFGRNAMGWYRQAPGKERELVAAISNGGSTNYADSVKGRFTISRDNAKNTVYLQMNSLNPEDTAVYYCNRRVPYSFYSRGYYYWGQGTQVTVSS,polyreactivity (PSR sort gate),high polyreactivity
QVQLVESGGGLVQAGGSLRLSCAASGSIFADNAKGWYRQAPGKEMDLVAAITWSGGSTYYADSVKGRFTISRDNAKNTVYLQMNSLKPEDTAVYYCNADDAVEYSYGGGTEFYYWGQGTQVTVSS,polyreactivity (PSR sort gate),low polyreactivity
QVQLVESGGGLVQAGGSLRLSCAASGRTIPNYAMGWTRQAPGKERELVAAISSSGDRTYYADSVKGRFTISRDNAKNTVYLQMNSLKPEDTAVYYCAADRGARGDYWGQGTQVTVSS,polyreactivity (PSR sort gate),high polyreactivity
QVQLVESGGGLVQAGGSLRLSCAASGSTFHTNAMGWYRQAPGKERELVDAISRSGTSTYYADSVKGRFTISRDNAKNSVYCQMNSLNPEDTAVYYCAAYGPRVNGEIGREYYYWGQGTQVTVSS,polyreactivity (PSR sort gate),low polyreactivity
QVQLVESGGGLVQAGGSLRLSCAPSGRTFNPYALGWYRPAPGKEREFVYADSVKGRFTISRDNAKNTVYLQMNSLKPEDTAVYYCAADVYPDTLHPYNYDYWGQGTQVTLSS,polyreactivity (PSR sort gate),low polyreactivity
QVQLVESGGGLVQAGGSLRLSCAASGSTFRLYAMGWYRQAPGKERELDAAISGSGGSTYYADSVKGRFTISRDYEKNTVYLQMNSLKPVDTAVYYCAAEVVRRYYAGRGYWGHGTQVTVSS,polyreactivity (PSR sort gate),high polyreactivity
QVQLVESGGGLVQAGGSLRLSCAASGGTFRYNAKGWYRQAPGKERELFATISIRGASTYYADSVKGRITISRDNAKHSVYLQLNSLKPEDTAVFYCAAERRNSYVLLIKYNYWGQGTQVTVSS,polyreactivity (PSR sort gate),low polyreactivity
QVQLVESGGGLVQAGGSLRLSCAASGRTFVPYAMGWYRQAHGKERELVAAIDKSDGSTYYADSVKGRFTISRDNAKNTVYLKMNSLKPEDSAVYFCNAEGYTYRYYTIYNYCGQGTQVTVSS,polyreactivity (PSR sort gate),high polyreactivity
QVQLVESGGGLVQAGGSLRLSCAASGLIFYWYAMGWYRQAPGKEREFVAAISYGGTTTSYADSVKGRFTISRDNAKNTVYLQMNSLKPEDTAVYYCAAEESTSSWSINDYWGQGTQVTVSS,polyreactivity (PSR sort gate),low polyreactivity
QVQLVESGGGLVQAGGSLRLSCAASGRTFYSYAMGWYRQAPGKERELVAAINSGGDTYYADSVKGRFTISRDNAKNTVYLQMNSLKPEDTAVYYCAADYYWEMDTWGQGTQVTVSS,polyreactivity (PSR sort gate),low polyreactivity
QVQLVESGGGLVQAGGSLRLTCAASGSIFNGYAMGCYRQAPGKERELVAAIRTRGGSTYYADSVKGRFTISRDIAMNTVYLQMNSLKPEDTAVYYCAKRYFGWYGNFDYWGQGTQVTVSS,polyreactivity (PSR sort gate),high polyreactivity
QVQLVESGGGLVQAGGSLRLSCDASGRTFGNNAMGWYRQAPGKERELVASISSSGGTNYADSVKGRFTISRDNAKNTVYVQLNSLKPEDTAVYYCAKRKFTARQRYNYWGQGTQVTVSS,polyreactivity (PSR sort gate),high polyreactivity
QVQLVESGGGLVHAGGSLRLSCAASGSIFIYYAMGWYRQPPGKERELVAAIDRSGGNTYYADSVKGRFTISRDYAKTSVYLEMNSLKPEDTAVDYCAAQVHRRVQYDYWGQRTQVTVSS,polyreactivity (PSR sort gate),high polyreactivity
QVQLVESGGRLVQAGGSLRLSCAASGFIFKLYGMGWYRQAPGKESEMVAAINTSGGRTYYADSVKGRFTISLDNAKNTVYLQMNSLKPEDTAVYYCNTYYSFYGGGYDHWVQGTQVTVSS,polyreactivity (PSR sort gate),high polyreactivity
QVQLVESGGGLVQAGGSLRLSCAASGSSFAENAMGWSRQAPGKERELVATIRSGGSTYADSVKGRFTISRDNAKKTVNLQMNILKPEDTAVYYCATDRYPHSATPGDYWGQGTQVTVSS,polyreactivity (PSR sort gate),low polyreactivity
QVQLVESGGGLVQAGGSLRLSCAASGRTFWRNAMGWYRQAPGKERELVAAISSSGDRTYYADSVKGRFTISRDNAKNTVYLQMNSLKPEDTAVYYCAARTFWGAYDYWGQGTQVTVSS,polyreactivity (PSR sort gate),high polyreactivity
